Literature values as cited in paper PMC11631806.

Biological target: Cys32 (UniProt position 32, FSATWCGPCKM)
Conditions: not stated (reduced dithiol form implied by thiol titration)

Thioredoxin (cytosolic Trx, Trx1) (Homo sapiens (inferred; the article does not name the species for these values))
pKa: 6.3 ± 0.1
